Assay [1] concerns the target Down-regulated Hck kinase (containing an N-terminal His6 tag). Put plainly: cell-based or functional assay.
Assay [2] concerns the target human Fyn (residues 81-142) SH3 domain-GST fusion protein (human), P06241. As to the kind of experiment: fluorescence polarization, 50 nM labeled peptide, SH3-GST titrated.
The target of assay [3] is T1, human Lck (residues 62-128) SH3 domain-GST fusion (human), P06239.
T1 chain: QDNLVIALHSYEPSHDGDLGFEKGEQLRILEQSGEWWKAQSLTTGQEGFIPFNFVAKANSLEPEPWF
The description is as above.

Assay [4] deals with human Lyn (residues 62-122) SH3 domain-GST fusion protein (human), P07948. The description is as above.
Chain of human Lyn (residues 62-122) SH3 domain-GST fusion protein (human), P07948 (P07948 62-122): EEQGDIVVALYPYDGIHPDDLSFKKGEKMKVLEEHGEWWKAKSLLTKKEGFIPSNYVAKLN

Where only a bound is given, the exact number is not on record here.

Chain of human Fyn (residues 81-142) SH3 domain-GST fusion protein (human), P06241 (P06241 81-142): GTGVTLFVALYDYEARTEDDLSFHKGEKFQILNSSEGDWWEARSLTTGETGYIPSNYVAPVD

In assay [1], APPLPPRNRGDDAPVEDLIRFYDNLQQYLNVVTRHRY (designed binder) [PP2] came in with an Activity (nmol · sec^-1), activator at 50 micromolar (nmol · sec^-1) of 139; a Fold-Activation, activator at 50 micromolar of 13 fold; a Kact (concentration of activator at half-maximal activation) of 48 µM.
In assay [1], APPLPPRNRPRDAPVEDLIRFYDNLQQYLNVVTRHRY (designed binder) [PP3] had an Activity (nmol · sec^-1), activator at 50 micromolar (nmol · sec^-1) of 83.9; a Fold-Activation, activator at 50 micromolar of 7 fold; a Kact (concentration of activator at half-maximal activation) of 48 µM.
In assay [1], APPLPPRNPGDDAPVEDLIRFYDNLQQYLNVVTRHRY (designed binder) [PP1] came in with an Activity (nmol · sec^-1), activator at 50 micromolar (nmol · sec^-1) of 83.6 and a Fold-Activation, activator at 50 micromolar of 8 fold.
As to CGGAPPLPPRNRPR (modifications not checked) [^Flu1, fluorescently labeled analog of Peptide 1], the Kd is 1.4 µM in assay [2], over 20 µM in assay [3] and 2 µM in assay [4].

The Kd is a measure of binding affinity in units of concentration. Lower therefore signals a tighter complex.

The values above are taken from patent publication US20100273722A1, “MODIFIED MINIATURE PROTEINS” (Yale University, priority 2007, published 2010).
